Assay results from US20120201826A1 (NOV IMMUNE S A, published 2012).

Legend:
[1] = target: T1, recombinant human RANTES (huRANTES, Peprotech) (human, UniProt P13501 24-91); assay: cell-based or functional assay
T1 sequence: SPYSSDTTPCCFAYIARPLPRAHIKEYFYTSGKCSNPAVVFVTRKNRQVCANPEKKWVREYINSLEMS

[2] = target: T1, recombinant human RANTES (huRANTES, …); assay: cell-based or functional assay; remark: listed apart in the source

Row | Binder | Chemotaxis IC50 (nM); L1.2 cells expressing hCCR5, 1 nM huRANTES; scFv format [1] [nM] | Chemotaxis IC50 (nM), 1 nM huRANTES; L1.2-hCCR5 cells; IgG1 format [2] [nM] | Chemotaxis IC50 (nM), 0.2 nM huRANTES; L1.2-hCCR5 cells; IgG1 format [2] [nM] | Calcium Flux IC50 (nM), 10 nM rhuRANTES; L1.2-hCCR5 cells; IgG1 format [2] [nM]
1 | 2D1 antibody, IgG1 format (antibody, V domains shown) VH: QVQLVQSGAEVKKPGASVKVSCKVSGYTLNDFAMHWVRQAPGKGLEWMGGYVPEDGDTIYAQKFQGRVTMTEDTSTDTAYMELSSLRSEDTAVYYCATDPLYSGSLSYWGQGTTVTVSS VL: SYVLTQPPSVSVAPGQTARITCGGNNIESKSVHWYQQKPGQAPVLVVYDDSDRPSGIPERFSGSNSGNTATLTISRVEAGDEADYYCQVWDSNTDHWVFGGGTKVTVL | – | 1.7 | 1.3 | –
2 | 3E7 antibody, IgG1 format (antibody, V domains shown) VH: QVQLVQSGAEVKKPGASVKVSCKVSGYTLNDFAMHWVRQAPGKGLEWMGGYVPEDGDTIYAQKFQGRVTMTEDTSTDTAYMELSSLRSEDTAVYYCATDPLYPPGLSPWGQGTTVTVSS VL: SYVLTQPPSVSVAPGQTARITCGGNNIESKSVHWYQQKPGQAPVLVVYDDSDRPSGIPERFSGSNSGNTATLTISRVEAGDEADYYCQVWDSNTDHWVFGGGTKVTVL | – | 0.68 | 0.25 | –
3 | 4D8 antibody, IgG1 format (antibody, V domains shown) VH: QVQLVQSGAEVKKPGASVKVSCKVSGYTLNDFAMHWVRQAPGKGLEWMGGYVPEDGDTIYAQKFQGRVTMTEDTSTDTAYMELSSLRSEDTAVYYCATDPLYTPGLYVWGQGTTVTVSS VL: SYVLTQPPSVSVAPGQTARITCGGNNIESKSVHWYQQKPGQAPVLVVYDDSDRPSGIPERFSGSNSGNTATLTISRVEAGDEADYYCQVWDSNTDHWVFGGGTKVTVL | – | 1.16 | 0.22 | –
4 | G2 antibody, IgG1 format (antibody, V domains shown) VH: QVQLVQSGAEVKKPGASVKVSCRASGYALTELSIHWVRQAPGKGLEWMGGFDPEDGETIYAQNFQGRVIMTEDTSTDTAYMELSSLKSEDTAVYYCATDLTGSRDSWGQGTLVTVSS VL: QSVLTQPASVSGSPGQSITISCTGSRSDIGYYNYVSWYQQHPGKVPKLIIYDVTERPSGVSDRFSGSKSANTASLTISGLQAEDEADYYCSSFSSGDTFVVFGGGTKLTVL | – | 18.4 | – | –
5 | D1 scFv (scFv) EVQLVQSGPEVKKPGATVKISCNVSAETFTDYYIHWVKQAPGRGLEWMGLVDSEEDGETLFAETFRGRVALTADRSTNTAYMELRSLRHDDTAVYYCAAEYGEYGFFQSWGQGTLVTVSSQSVLTQPPSVSGAPGQRVTISCTGSSSNIGADYDVNWYQQLPGTSPKLLIYGDINRPSGVPDRFSASKSGTSASLAITGLQAEDEADYYCQSFDNSLSGSVIFGGGTKLTVL | 22 | – | – | –
6 | 1D9 scFv (scFv) QVQLVQSGAEVKKPGASVKVSCKVSGYTLTEFAMHWVRQAPGKGLEWMGGFVPEDGETIYAQKFQGRVTMTEDTSTDTAYMELSSLRSEDTAVYYCATDPLYTPGLEPWGQGTTVTVSSSYVLTQPPSVSVAPGQTARITCGGNNIESKSVHWYQQKPGQAPVLVVYDDSDRPSGIPERFSGSNSGNTATLTISRVEAGDEADYYCQVWDSNTDHWVFGGGTKLTVL | 0.82 | – | – | –
7 | 1E4 scFv (scFv) QVQLVQSGAEVKKPGASVKVSCKVSGYTLTEFAMHWVRQAPGKGLEWMGGFVPEDGETIYAQKFQGRVTMTEDTSTDTAYMELSSLRSEDTAVYYCATDPLYEGSFSVWGQGTTVTVSSSYVLTQPPSVSVAPGQTARITCGGNNIESKSVHWYQQKPGQAPVLVVYDDSDRPSGIPERFSGSNSGNTATLTISRVEAGDEADYYCQVWDSNTDHWVFGGGTKLTVL | 1.25 | – | – | –
8 | 3E7 scFv (scFv) QVQLVQSGAEVKKPGASVKVSCKVSGYTLNDFAMHWVRQAPGKGLEWMGGYVPEDGDTIYAQKFQGRVTMTEDTSTDTAYMELSSLRSEDTAVYYCATDPLYPPGLSPWGQGTTVTVSSSYVLTQPPSVSVAPGQTARITCGGNNIESKSVHWYQQKPGQAPVLVVYDDSDRPSGIPERFSGSNSGNTATLTISRVEAGDEADYYCQVWDSNTDHWVFGGGTKVTVL | 0.47 | – | – | –

More lines, now with the values ahead:

Row | Chemotaxis IC50 (nM); L1.2 cells expressing hCCR5, 1 nM huRANTES; scFv format [1] [nM] | Chemotaxis IC50 (nM), 1 nM huRANTES; L1.2-hCCR5 cells; IgG1 format [2] [nM] | Chemotaxis IC50 (nM), 0.2 nM huRANTES; L1.2-hCCR5 cells; IgG1 format [2] [nM] | Calcium Flux IC50 (nM), 10 nM rhuRANTES; L1.2-hCCR5 cells; IgG1 format [2] [nM] | Binder
9 | 90 | – | – | – | C8 scFv (scFv) QVQLVESGGGVVQPGRSLRLSCAASGFTFSSYAMHWVRQAPGKGLEWVAVISYDGSNKYYADSVKGRFTISRDNSKNTLYLQMNSLRAEDTAVYYCARETFPHYYYYYMDVWGRGTLVTVSSSYVLTQPPSVSVAPGQTARITCEGDDTDIGTVNWYQQKPGQAPVLVISEDGYRPSGIPERFSGSNSGNTATLTISRVEAGDEADYYCQFWDVDSDHPVFGGGTQLTVL
10 | – | 17 | – | – | C10 antibody, IgG1 format (antibody, V domains shown) VH: not shown VL: SYVLTQPPSVSVAPGKTASISCGGDNIGGQNVHWYQQKPGQAPVLVIYYDTDRPSGIPERFSGSNSGNTATLSISRVEAADEADYYCQVWDVDSDHPWVFGGGTKLTVL
11 | – | 0.82 | 0.25 | – | 5E1 antibody, IgG1 format (antibody, V domains shown) VH: QVQLVQSGAEVKKPGASVKVSCKVSGYTLNDFAMHWVRQAPGKGLEWMGGYVPEDGDTIYAQKFQGRVTMTEDTSTDTAYMELSSLRSEDTAVYYCATDYLYIPSLSYWGQGTTVTVSS VL: SYVLTQPPSVSVAPGQTARITCGGNNIESKSVHWYQQKPGQAPVLVVYDDSDRPSGIPERFSGSNSGNTATLTISRVEAGDEADYYCQVWDSNTDHWVFGGGTKVTVL
12 | – | 0.74 | 0.31 | – | 6A8 antibody, IgG1 format (antibody, V domains shown) VH: QVQLVQSGAEVKKPGASVKVSCKVSGYTLNDFAMHWVRQAPGKGLEWMGGYVPEDGDTIYAQKFQGRVTMTEDTSTDTAYMELSSLRSEDTAVYYCATDPLYPPGLQPWGQGTTVTVSS VL: SYVLTQPPSVSVAPGQTARITCGGNNIESKSVHWYQQKPGQAPVLVVYDDSDRPSGIPERFSGSNSGNTATLTISRVEAGDEADYYCQVWDSNTDHWVFGGGTKVTVL
13 | – | 1.1 | 0.31 | – | 7B5 antibody, IgG1 format (antibody, V domains shown) VH: QVQLVQSGAEVKKPGASVKVSCKVSGYTLNDFAMHWVRQAPGKGLEWMGGYVPEDGDTIYAQKFQGRVTMTEDTSTDTAYMELSSLRSEDTAVYYCATDPLYSGSLSYWGQGTTVTVSS VL: SYVLTQPPSVSVAPGQTARITCGGNNIESKSVHWYQQKPGQAPVLVVYDDSDRPSGIPERFSGSNSGNTATLTISRVEAGDEADYYCQVWDSGPVWWIFGGGTKLTVL
14 | – | 29 | – | 7.7 | BG11 antibody, IgG1 format (antibody, V domains shown) VH: QVQLVQSGAEVKKPGASVKVSCKVSGYTLTELSMHWVRQAPGKGLEWMGGFDPEDGETIYAQKFQGRVTMTEDTSTDTAYMELSSLRSEDTAVYYCATYSGSSGWWAFDIWGQGTMVTVSS VL: SSELTQDPAVSVALGQTVRITCQGDSLRSYYASWYQQKPGQAPVLVIYGKNNRPSGIPDRFSGSSSGNTASLTITGAQAEDEADYYCQTWGTGIWVFGGGTKLTVL
15 | 4.3 | – | – | – | H11 scFv (scFv) QVQLVQSGAEVKKPGSSVKVSCKASGGISDNYALSWVRQAPGQGLEWMGGFIPLVDTTNYAQRFQGRLTITADDSMSTVYMELRSLRSDDTAMYYCAREQVAVGPGPTSDRGPDGLDVWGQGTMVTVSSQSVLTQPSSVSGAPGHRVTISCTGSNSNLGADYDVHWYQQLPGSAPKLLIYDNNIRPSGVPARFSGSKSGTSASLAITGLQAEDEADYYCQSYDTGLTSSDVIFGGGTKLTVL
16 | – | 13.2 | – | – | A5 antibody, IgG1 format (antibody, V domains shown) VH: QVQLVQSGAEVKKPGASVKVSCKVSGYALSELSIHWVRQAPGKGLEWMSYIDPEDGEPIYAQKFQGRATMTEDSSTDTAYMEMGSLTSDDTAVYYCAGVTGSTSDAFDLWGRGTLVTVSS VL: SYVLTQDPSVSVAPGQTARITCGGANLWGLGVHWYQQKSGQAPVLVVSDNSDRASGIPERFSGSNSGTTATLTLSRVEVGDEADYYCQVWDSSSDHWVFGGRTKLTVL
17 | – | 16 | – | – | E10 antibody, IgG1 format (antibody, V domains shown) VH: QVQLVESGGGVVQPGRSLRLSCAASGFTFSSYAMHWVRQAPGKGLEWVAVISYDGSNKYYADSVKGRFSISRDNSKNTLYLQMNSLRAEDTAVYYCARETFPHYYYYYMDVWGKGTMVTVSS VL: SYVLTQPPSVSVAPGQTARISCGGGNFDDEGVHWYQQTPGQAPVLVVYDDTGRPSGIPERFSGSSSGNTATLTISRVEAGDEADYYCQAWDSSNDHPVFGGGTQLTVL
18 | 3.6 | – | – | – | CG11 scFv (scFv) QVQLVQSGTEVKKPGATVNVSCKISGHLFTDYYIHWVQQAPGKGLEWVGLIDPKDGEIQYAEKFQARVTITADTSTDTVYMELNSLRSEDTAVYYCATEVLSGIRVFPFDPWGQGTLVTVSSQSVLTQPPSVSGAPGQRVTISCTGSSSNIGAGYDVYWYQQFPGKAPKLLIYDTNNRPPGVPDRFSGSKSGTSASLAISGLQTEDEADYYCQSYDIALSNSNVVFGGGTKLTVL
19 | 3.8 | – | – | – | E7 scFv (scFv) QVQLVQSGAEVKKPGSSVKVSCKISGGISDNYALSWVRQAPGQGLEWMGAVIPLVETTSYAQRFQGRLTITADDSLNTLYMELGSLRSDDTAMYYCAREQVAVGPGPTSNRGPDGLDVWGRGTMVTVSSQSVLTQPPSVSGAPGQRVTISCTGSSSNIGDGYDVHWYQQLPGTAPKLLIYGNSNRPSGVPDRFSGSTSGTSASLAIRGLQSEDEADYYCGTWDDILNGWVFGGGTKLTVL
20 | – | 14 | – | 12.7 | E6 antibody, IgG1 format (antibody, V domains shown) VH: QVQLVQSGAEVEKPGASVKVSCRVSGYPLTEIAIHWVRQAPGKGLEWMGSFEPEDAEAIYAQRFQGRVTMTEETSANTAYMELSSLRSEDTAVYFCATDPYYASSGSNYMEVWGRGTLVTVSS VL: NFMLTQPHSVSESPGKTVTISCTGSGGSISSNYVQWYRQRPGSAPSTVIYEDDQRPSGVPDRISGSIDSSSNSASLTISGLTTEDEADYYCHSYDGNNRWVFGGGTKLTVL
